Test results reported in patent US20180273941A1 (UNIVERSITY OF MARYLAND BALTIMORE, published 2018).

Molecular target: T1, wild-type human moesin (Moesin-WT) (human, UniProt P26038 2-577, pulled down with the anti-p-ERM antibody, i.e. the form with phosphorylated C-terminal threonine (Thr558 for moesin, as the filing names the site in paragraph 193))
T1 construct: also called pCDNA3-Moesin WT; wild type moesin
Assay: anti-p-ERM IP and Western blot, transfected H522 cells
From the text: Both plasmids produce high levels of moesin proteins in the transfected cells (FIG. 5d).
Because p-ERM functions primarily through binding to F-actin and EBP50 (ERM-binding phosphoprotein 50) through their C-ERMAD and TERM domain (Fouassier, L., Yun, C. C., Fitz, J. G.& Doctor, R. B. Evidence for ezrin-radixin-moesin-binding phosphoprotein 50 (EBP50) self-association through PDZ-PDZ interactions. J Biol Chem. 275, 25039-25045 (2000); Turunen, O., Wahlström, T. & Vaheri, A. Ezrin has a COOH-terminal actin-binding site that is conserved in the ezrin protein family. J Cell Biol. 126, 1445-1453 (1994); Bretscher, A. et al. ERM-Merlin and EBP50 protein families in plasma membrane organization and function.

T1 sequence (P26038 2-577 limits assumed): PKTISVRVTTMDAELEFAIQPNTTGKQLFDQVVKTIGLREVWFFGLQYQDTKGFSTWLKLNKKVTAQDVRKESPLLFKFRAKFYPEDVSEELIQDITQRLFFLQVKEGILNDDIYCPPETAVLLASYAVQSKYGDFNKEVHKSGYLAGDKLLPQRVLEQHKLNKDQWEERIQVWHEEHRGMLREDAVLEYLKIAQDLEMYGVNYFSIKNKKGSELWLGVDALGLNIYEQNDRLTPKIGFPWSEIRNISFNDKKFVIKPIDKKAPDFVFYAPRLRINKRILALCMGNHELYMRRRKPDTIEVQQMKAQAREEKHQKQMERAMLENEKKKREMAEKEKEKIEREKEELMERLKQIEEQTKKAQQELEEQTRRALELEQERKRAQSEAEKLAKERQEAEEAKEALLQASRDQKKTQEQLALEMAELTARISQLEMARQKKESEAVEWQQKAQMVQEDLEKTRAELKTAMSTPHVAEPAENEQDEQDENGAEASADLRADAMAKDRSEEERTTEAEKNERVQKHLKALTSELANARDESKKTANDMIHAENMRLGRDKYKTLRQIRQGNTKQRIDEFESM

B1: ERM-binding phosphoprotein 50 (EBP50) (other, UniProt O14745 2-358, looked up)
chain: SADAAAGAPLPRLCCLEKGPNGYGFHLHGEKGKLGQYIRLVEPGSPAEKAGLLAGDRLVEVNGENVEKETHQQVVSRIRAALNAVRLLVVDPETDEQLQKLGVQVREELLRAQEAPGQAEPPAAAEVQGAGNENEPREADKSHPEQRELRPRLCTMKKGPSGYGFNLHSDKSKPGQFIRSVDPDSPAEASGLRAQDRIVEVNGVCMEGKQHGDVVSAIRAGGDETKLLVVDRETDEFFKKCRVIPSQEHLNGPLPVPFTNGEIQKENSREALAEAALESPRPALVRSASSDTSEELNSQDSPPKQDSTAPSSTSSSDPILDFNISLAMAKERAHQKRSSKRAPQMDWSKKNELFSNL
notes: Endogenous protein detected by Western blot (anti-EBP50, Clone 6/EBP50) in anti-p-ERM IP products
B1: binds.
